The source of these data is publication PMC11066147 (Heliyon, 2024).

The target in experiment [1] is T1, PfHsp70-1 (Plasmodium falciparum, UniProt Q8IB24). Kind of experiment: SPR heterologous association with PfHsp70-1. It is filed as binding.
Experiment [2] addresses T1, PfHsp70-1. The conditions noted are these: previous study; ref [3]; cited from earlier work.
In experiment [3] the target is T2, PfHsp70-z (Plasmodium falciparum, UniProt Q8IC01).
T2 sequence (Q8IC01 1-873): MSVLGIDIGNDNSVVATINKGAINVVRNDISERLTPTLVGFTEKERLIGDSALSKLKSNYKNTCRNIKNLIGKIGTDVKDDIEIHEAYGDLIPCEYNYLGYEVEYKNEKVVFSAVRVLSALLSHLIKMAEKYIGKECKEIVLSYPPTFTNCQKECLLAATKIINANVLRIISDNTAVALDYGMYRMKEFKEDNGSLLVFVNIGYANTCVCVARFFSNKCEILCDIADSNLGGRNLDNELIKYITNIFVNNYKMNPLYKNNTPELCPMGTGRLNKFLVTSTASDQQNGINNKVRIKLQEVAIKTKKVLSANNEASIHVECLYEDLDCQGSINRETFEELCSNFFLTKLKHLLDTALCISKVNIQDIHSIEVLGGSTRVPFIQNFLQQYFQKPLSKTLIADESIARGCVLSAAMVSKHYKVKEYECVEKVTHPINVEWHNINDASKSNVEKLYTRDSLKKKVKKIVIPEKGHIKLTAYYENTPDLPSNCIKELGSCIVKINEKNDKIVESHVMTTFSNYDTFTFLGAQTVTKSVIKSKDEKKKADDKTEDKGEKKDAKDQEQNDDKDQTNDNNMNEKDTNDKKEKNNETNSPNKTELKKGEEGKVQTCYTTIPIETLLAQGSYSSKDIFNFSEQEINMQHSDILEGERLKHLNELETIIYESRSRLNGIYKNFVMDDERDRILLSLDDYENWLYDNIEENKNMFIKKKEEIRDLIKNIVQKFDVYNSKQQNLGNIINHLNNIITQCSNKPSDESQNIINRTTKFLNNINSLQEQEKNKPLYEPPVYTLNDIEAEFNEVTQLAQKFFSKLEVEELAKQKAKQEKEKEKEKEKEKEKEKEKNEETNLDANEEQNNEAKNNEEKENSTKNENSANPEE
Kind of experiment: SPR self-association, immobilised ligand PfHsp70-z. It is filed as binding.

Entries after “also recorded” stand apart in the source; their conditions may differ.

T1 sequence (Q8IB24 1-677): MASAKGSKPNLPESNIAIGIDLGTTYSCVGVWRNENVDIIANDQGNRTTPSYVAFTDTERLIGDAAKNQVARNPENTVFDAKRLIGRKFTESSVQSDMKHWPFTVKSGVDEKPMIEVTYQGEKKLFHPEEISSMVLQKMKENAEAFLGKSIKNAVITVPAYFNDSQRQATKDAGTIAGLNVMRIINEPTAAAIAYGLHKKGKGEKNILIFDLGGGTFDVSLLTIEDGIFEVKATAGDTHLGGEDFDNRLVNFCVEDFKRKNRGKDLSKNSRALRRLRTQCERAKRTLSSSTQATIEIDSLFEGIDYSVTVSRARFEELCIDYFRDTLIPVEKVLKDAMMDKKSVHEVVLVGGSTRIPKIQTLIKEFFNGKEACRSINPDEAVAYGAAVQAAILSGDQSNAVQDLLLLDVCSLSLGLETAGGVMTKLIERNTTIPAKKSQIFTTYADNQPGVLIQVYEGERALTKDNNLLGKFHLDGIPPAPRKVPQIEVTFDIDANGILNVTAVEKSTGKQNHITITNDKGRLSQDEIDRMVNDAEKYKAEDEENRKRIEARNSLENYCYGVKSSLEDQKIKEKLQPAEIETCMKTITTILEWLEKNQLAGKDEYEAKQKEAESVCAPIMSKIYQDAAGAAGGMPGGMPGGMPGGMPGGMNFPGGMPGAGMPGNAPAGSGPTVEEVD

B1: PfHsp70-z: essential cytosol localised Hsp110 chaperone of Plasmodium falciparum, recombinant (protein)
chain: T2 sequence (Q8IC01 1-873)
On to B1, for which, in experiment [1] (apo- and ADP-states), the “affinity in apo- vs ADP-state” value is given as “occurred within the same order of affinity”. In addition, in experiment [1] (relative to apo-state), the “effect of nucleotide on heterologous association” value is reported as “ATP enhanced the direct association of the two chaperones”. Also, the “effect of ATP on association” value in experiment [2] is reported as “ATP substantially enhances their association”. In experiment [3] (NN vs ADP/ATP), the “nucleotide regulation of self-association” value is on record as “its self-association was nucleotide independent; also recorded: its oligomerisation was not regulated by nucleotide”. In experiment [3] (apo state), the “KD self-association” value was 1.39 nM.
